Assay results as given in paper PMC8530227.

Biological target: Get3^BDP•TA targeting complex (Get3 dimer with the model tail-anchored substrate 3xStrep-SUMOnc-Bos1-opsin) (yeast | not stated) (UniProt Q12154)
Experiment: FRET or BRET

Sequence of Get3^BDP•TA targeting complex (Get3 dimer with the model tail-anchored substrate 3xStrep-SUMOnc-Bos1-opsin) (yeast | not stated) (Q12154 whole entry, chain 1 of 2): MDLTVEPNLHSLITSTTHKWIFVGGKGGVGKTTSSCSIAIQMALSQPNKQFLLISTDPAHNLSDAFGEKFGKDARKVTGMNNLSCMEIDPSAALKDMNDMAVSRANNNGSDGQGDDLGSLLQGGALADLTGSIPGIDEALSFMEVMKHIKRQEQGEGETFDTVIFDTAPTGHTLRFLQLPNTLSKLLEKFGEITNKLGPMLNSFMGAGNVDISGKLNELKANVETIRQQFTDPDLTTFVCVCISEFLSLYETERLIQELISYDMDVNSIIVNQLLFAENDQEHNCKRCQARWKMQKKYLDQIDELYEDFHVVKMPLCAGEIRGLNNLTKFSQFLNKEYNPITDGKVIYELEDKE
Sequence of Get3^BDP•TA targeting complex (Get3 dimer with the model tail-anchored substrate 3xStrep-SUMOnc-Bos1-opsin) (yeast | not stated) (P25385 203-244, chain 2 of 2, further chain): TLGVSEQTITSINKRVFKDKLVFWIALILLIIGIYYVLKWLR

Row | reduction in donor fluorescence (FRET) | Kd | Substance
1 | 50% | – | mini-Get1^TMR/2 (mini-Get1/2 labeled with TMR on Get1CD) (from UniProt P53192 20-102; P40056 1-150) (complex)
2 | 50% | – | mini-Get1/2^TMR (mini-Get1/2 labeled with TMR on Get2CD) (from UniProt P53192 20-102; P40056 1-150) (complex)
3 | – | 7.1 nM | mini-Get1(NR)/2^TMR (from UniProt P53192 20-102; P40056 1-150) (complex)
